Biological target: L1CAM protein (Sino Biological) (UniProt P32004 20-1120)
Test: DMS footprinting; 100 nM DNA, 300 nM L1CAM; PBS, 4.5 g/L glucose, 5 mM MgCl2, 1 mg/mL BSA, 0.1 mg/mL herring sperm DNA; 30 min at 4 °C (or 25/37 °C); pH not stated
Conditions: protein: commercial; label: FAM (3' FAM in DMS footprinting); hairpin, two stems, two loops, T bulge in stem I

Chain of L1CAM protein (Sino Biological) (P32004 20-1120): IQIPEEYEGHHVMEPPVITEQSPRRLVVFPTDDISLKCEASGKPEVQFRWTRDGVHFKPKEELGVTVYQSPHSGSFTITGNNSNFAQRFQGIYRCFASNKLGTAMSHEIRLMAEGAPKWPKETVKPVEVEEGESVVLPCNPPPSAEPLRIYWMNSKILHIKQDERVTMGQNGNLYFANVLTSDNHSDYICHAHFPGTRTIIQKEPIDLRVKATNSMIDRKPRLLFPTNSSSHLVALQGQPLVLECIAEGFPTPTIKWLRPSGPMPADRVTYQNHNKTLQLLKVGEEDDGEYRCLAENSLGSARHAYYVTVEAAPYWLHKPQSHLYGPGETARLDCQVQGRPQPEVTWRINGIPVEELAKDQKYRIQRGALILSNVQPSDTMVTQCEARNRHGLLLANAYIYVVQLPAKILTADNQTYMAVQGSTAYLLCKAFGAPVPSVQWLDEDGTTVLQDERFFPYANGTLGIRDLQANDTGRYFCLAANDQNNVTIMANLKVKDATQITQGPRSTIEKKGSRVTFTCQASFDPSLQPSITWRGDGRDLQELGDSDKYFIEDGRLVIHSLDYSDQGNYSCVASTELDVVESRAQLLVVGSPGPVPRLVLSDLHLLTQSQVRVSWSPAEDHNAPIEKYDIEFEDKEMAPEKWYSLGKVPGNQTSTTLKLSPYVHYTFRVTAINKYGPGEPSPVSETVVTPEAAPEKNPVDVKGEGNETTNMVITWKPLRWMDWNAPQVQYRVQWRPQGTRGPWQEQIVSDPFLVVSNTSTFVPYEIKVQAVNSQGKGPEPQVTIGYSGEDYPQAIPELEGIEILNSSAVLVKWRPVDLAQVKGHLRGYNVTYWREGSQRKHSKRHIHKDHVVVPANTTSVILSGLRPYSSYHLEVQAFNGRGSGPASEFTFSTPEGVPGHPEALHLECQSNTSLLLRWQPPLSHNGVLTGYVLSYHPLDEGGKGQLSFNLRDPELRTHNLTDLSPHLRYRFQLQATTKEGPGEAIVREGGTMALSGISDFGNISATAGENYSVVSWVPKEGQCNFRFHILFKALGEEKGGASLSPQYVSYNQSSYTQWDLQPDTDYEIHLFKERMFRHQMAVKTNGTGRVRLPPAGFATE

B1: yly20 (ssDNA)
DNA: CAGATAGGGGGTAGCTCGGTCGTGTTTTTGGGTTGTTTGGTGGGTCTTCTG
**Q.** Does B1 bind?
**A.** Result: binds

Reference: publication PMC10218236, “Structural Optimization and Interaction Study of a DNA Aptamer to L1 Cell Adhesion Molecule”
